For data set [1], the target named is SPD_0839 (Streptococcus pneumoniae, UniProt A0A0H2ZP99). As to the kind of experiment: isothermal titration calorimetry. It counts as binding.
Data set [2] concerns the molecule itself. As to the kind of experiment: nanoparticle tracking analysis; NanoSight NS300, samples diluted with PBS, 25 °C; particle concentration of PLY and its mutants.
Data set [3] deals with the molecule itself. As to the kind of experiment: SDS-PAGE without β-mercaptoethanol + Western blot; 1 µg Ply or mutant incubated with 125 µM crotonyl-CoA at 25 °C for 16 h; SDS loading buffer without β-mercaptoethanol, 55 °C for 10 min; 6 % SDS-PAGE; anti-Ply Western blot.
Data set [4] concerns the molecule itself. As to the kind of experiment: native gel or EMSA; native gel of purified PLY and its mutants; oligomeric and monomeric forms marked by arrows. On the technique in general: Mobility shift assays separate free from complexed probe on a gel.

Changes are numbered by the printed parent chain. Numbers in names are those of the source.

We go through seven molecules from publication PMC12957837, “Crotonylation driving Streptococcus pneumoniae adaption and virulence” (Journal of Advanced Research, 2025).

Sequence of SPD_0839 (A0A0H2ZP99 entry or part of it): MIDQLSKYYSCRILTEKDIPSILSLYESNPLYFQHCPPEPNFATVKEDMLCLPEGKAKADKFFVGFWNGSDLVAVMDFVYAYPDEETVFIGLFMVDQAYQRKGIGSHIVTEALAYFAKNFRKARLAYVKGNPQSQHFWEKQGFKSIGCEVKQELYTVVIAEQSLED

Broadly, the Kd is the free concentration of one partner at which half of the binding sites on the other are occupied at equilibrium, for simple one-to-one binding. High values mean lower affinity, low ones higher affinity. `CC(=O)SCCNC(=O)CCNC(=O)[C@H](O)C(C)(C)COP(=O)(O)OP(=O)(O)OC[C@H]1O[C@@H](n2cnc3c(N)ncnc32)[C@H](O)[C@@H]1OP(=O)(O)O` [AcCoA]: the Kd in data set [1] is 10.4 µM.
The same measure, in the same setting: in the case of `C/C=C/C(=O)SCCNC(=O)CCNC(=O)[C@H](O)C(C)(C)COP(=O)(O)OP(=O)(O)OC[C@H]1O[C@@H](n2cnc3c(N)ncnc32)[C@H](O)[C@@H]1OP(=O)(O)O` [CrCoA] it was 1 µM.

B1: pneumolysin (PLY), wild type (natural protein, Streptococcus pneumoniae D39, UniProt Q04IN8 1-471, looked up)
chain: MANKAVNDFILAMNYDKKKLLTHQGESIENRFIKEGNQLPDEFVVIERKKRSLSTNTSDISVTATNDSRLYPGALLVVDETLLENNPTLLAVDRAPMTYSIDLPGLASSDSFLQVEDPSNSSVRGAVNDLLAKWHQDYGQVNNVPARMQYEKITAHSMEQLKVKFGSDFEKTGNSLDIDFNSVHSGEKQIQIVNFKQIYYTVSVDAVKNPGDVFQDTVTVEDLKQRGISAERPLVYISSVAYGRQVYLKLETTSKSDEVEAAFEALIKGVKVAPQTEWKQILDNTEVKAVILGGDPSSGARVVTGKVDMVEDLIQEGSRFTADHPGLPISYTTSFLRDNVVATFQNSTDYVETKVTAYRNGDLLLDHSGAYVAQYYITWDELSYDHQGKEVLTPKAWDRNGQDLTAHFTTSIPLKGNVRNLSVKIRECTGLAWEWWRTVYEKTDLPLVRKRTISIWGTTLYPQVEDKVEND
notes: pneumolysin (PLY) of Streptococcus pneumoniae serotype 2 strain D39; also called wild-type PLY; WT PLY
Turning to B1, the binding result in data set [2] is “binds”.

B2: pneumolysin (PLY) K442R (natural protein, Streptococcus pneumoniae D39, UniProt Q04IN8 1-471, looked up)
chain: B1 chain with K442R
notes: pneumolysin (PLY) of Streptococcus pneumoniae serotype 2 strain D39 with K442R
For the molecule B2, the binding result in data set [2] is “binds”.

B3: pneumolysin (PLY) K171R (natural protein, Streptococcus pneumoniae D39, UniProt Q04IN8 1-471, looked up)
chain: B1 chain with K171R
notes: pneumolysin (PLY) of Streptococcus pneumoniae serotype 2 strain D39 with K171R
Take B3: in data set [2], the binding result is reported as “binds”.

B4: crotonylated pneumolysin (PLY incubated with crotonyl-CoA) (natural protein, Streptococcus pneumoniae D39, UniProt Q04IN8 1-471, looked up)
chain: B1 chain
modifications: lysine crotonylation (Kcr); K171 and K442 are the Kcr sites the paper names
notes: pneumolysin (PLY) of Streptococcus pneumoniae serotype 2 strain D39; also called crotonylated PLY; source: E. coli BL21 (λDE3), purified, then incubated with 125 µM crotonyl-CoA at 25 °C for 16 h
As to B4, in data set [3], the binding result is given as “binds”.

B5: pneumolysin (PLY) K164R (natural protein, Streptococcus pneumoniae D39, UniProt Q04IN8 1-471, looked up)
chain: B1 chain with K164R
notes: pneumolysin (PLY) of Streptococcus pneumoniae serotype 2 strain D39 with K164R
For B5, in data set [4], the binding result is given as “binds”.
